Data: paper PMC9430723

Columns and labels:
[1] = target: T1, AlkX (Rv3249c), TetR family regulator (Mycobacterium tuberculosis) (UniProt O05892); experiment: EMSA
T1 sequence: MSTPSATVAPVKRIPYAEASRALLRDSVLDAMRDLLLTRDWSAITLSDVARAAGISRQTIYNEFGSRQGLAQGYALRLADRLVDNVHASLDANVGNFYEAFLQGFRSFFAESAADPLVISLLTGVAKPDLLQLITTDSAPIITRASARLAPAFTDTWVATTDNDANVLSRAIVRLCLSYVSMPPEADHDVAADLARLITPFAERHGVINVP

[2] = target: T1, AlkX (Rv3249c), TetR family regulator (Mycobacterium tuberculosis); experiment: competition

| Sequence | binding [1] | binding [2] |
| --- | --- | --- |
| CGGCGATTGACTGTTCTACCGACTTCATGCGCCGTCGACCGGCCATGCACCCGTCCTCTCGCACTCGTTGTGACCGCACAGTACTGGGTACTCTGCGAGGATGACGGGTCGCGTAGGGAACCCGAAGGACCACGCCGTGGTGATCGGAGCTAGCATCGCCGGGTTGTGCGCCGCGCGGGTGCTCTCGGACTTCTACTCCA (double strand) [rv3253c promoter probe] | no binding | – |
| TCGGCAAGCTCGAGAGAGCGCGACCCGGAGGTGTTGAACTAGCTTCGCCGCGTATTTACAAATTGCGTTATATGTCTAGACATAAGACGCAAACTGCTCTATTGTCAAATCCCAACGTGGTGTGGCTCATGAGGAGGTTTGGCATATGACCACGCAAATCGGCTCTGGTGGACCCGAAG (double strand) [rv3252c (alkB) promoter probe] | binds | – |
| TCGGCAAGCTCGAGAGAGCGCGACCCGGAGGTGTTGAACTAGCTTCGCCGCGTATTTACAAATTGCGTTATATGTCTAGACATAAGACGCAAACTGCTCTATTGTCAAATCCCAACGTGGTGTGGCTCATGAGGAGGTTTGGCATATGACCACGCAAATCGGCTCTGGTGGACCCGAAG (double strand) [unlabeled (cold) rv3252c (alkB) promoter probe] | – | binds |
